This note sets out measurements from the DeepSol protein solubility set.

The data set in a line: soluble on expression in E. coli; label from the status in PepcDB or PDB records.
Take “MSGLVLGQRDEPAGHRLSQEEILGSTKVVSQGLEALHSEHQAVLQSLSHTIECLQQGGHEEGLVHEKARQLRRSMENIELGLSEAQVMLALASHLSTVESEKQKLRAQVRRLCQENQWLRDELAGTQQRLQRSEQAVAQLEEEKKHLEFLRQLRQYDEDGHGMEEKEGEATKDSLDDLFPNEEEEDSGNDLSRGQGAAAAQQGGYEIPARLRTLHNLVIQYAAQGRYEVAVPLCKQALEDLERTSGRGHPDVATMLNILALVYRDQNKYKEAAHLLNDALSIRESTLGRDHPAVAATLNNLALLSVWGWPTGLPCPGLFYPLLPHYRSTYFTVSLINEPGNI”: the “soluble on expression in E. coli” value was “soluble”.

For “MSGMILDELSWRGLIAQSTDLDTLAAEAQRGPMTVYAGFDPTAPSLHAGHLVPLLTLRRFQRAGHRPIVLAGGATGMIGDPRDVGERSLNEADTVAEWTERIRGQLERFVDFDDSPMGAIVENNLEWTGSLSAIEFLRDIGKHFSVNVMLARDTIRRRLAGEGISYTEFSYLLLQANDYVELHRRHGCTLQIGGADQWGNIIAGVRLVRQKLGATVHALTVPLVTAADGTKFGKSTGGGSLWLDPQMTSPYAWYQYFVNTADADVIRYLRWFTFLSADELAELEQATAQRPQQRAAQRRLASELTVLVHGEAATAAVEHASRALFGRGELARLDEATLAAALRETTVAELKPGSPDGIVDLLVASGLSASKGAARRTIHEGGVSVNNIRVDNEEWVPQSSDFLHGRWLVLRRGKRSIAGVERIGLEHHHHHH”, the “soluble on expression in E. coli” value is “soluble”.

For the sequence “MSGNQNGENVQQKKEKMCSIGETIYTWTQNKHATTYVGTYTKAFFSGEVCREIREHDEFLGMSFSSFF”, the “soluble on expression in E. coli” value is listed as “not soluble”. Next, “MSGRHEACITPARRARQCLNRGNTMRHLPLFSLMLFPASVYAADSDGANLN”: “not soluble”; “MSHAVSRLRDLRMARVAKPFFARGSRAERCPRCRVIPSHCLCAWRPKVVARSAMCLVMHDVEPLKPSNTGWLIADVIGDTTAFSWSRTEVDPQLLALLADPQWQPYIVFPGEFVAPERVVSEVRQEEGKRPLFILLDATWSEARKMFRKSPYLEHLPVLSLSPEKLSRYKLRRSKRDDHFCTAEVAALCLELAGDEQVSQVLDAYLDVFSTHYLSAKFQKAIDPDDDVHARLKPFVLEHHHHHH”: “not soluble”. On to “MSHCSCHDKPQHSLLPAAYRILSITRHTPLEWNFRVAVDFPAHWGQFVEVSLPRVGEAPISVSDYGDGWIDLLIRNVGKVTSALFTLKEGDNVWLRGCYGNGYPVDTLRHKPLLVVAGGTGVAPVKGLMRYFVENPQEIGQLDMILGYKNRDCVLYKEEMATWRGKHNLVLTLDEGEADDRYQIGRVTDRLADMTLSDIDTMQAIVVGPPIMITFTVKMLLQKGLKPEQIWVDYERRMACSVGKCGHCRMGEVYVCTDGPIFNYAVAQRFAD”, for which the “soluble on expression in E. coli” value is recorded as “not soluble”.

“MSHDFAHTELEELLTRTREAIEASFGNRSPQVEVRGEGTDPDGHVRAVAVSGGRIETVEIAPQAVRLGSHRLAECALAAVNAALADLEAKAAEAAGLTGPQADALRERLREMQDLSLQQLRSYSRSLQDLMNSFERS”: the “soluble on expression in E. coli” value is “not soluble”. In the case of “MSHHFRLAKGIPHVVDATPPHSMYNSPISIHYLPKRASSADPFKRKALSKSQRELTDFVNGRNGDPHGLRLPLPIRSSLTDLVKPKLLENRNYQPPRRKTPSKDHHSKAEENSKKAKKLERINKFKDAVLTDLIENDTYSDQMIMNSIRRHMEKLAGVISWDDLEKAADELIKKIGLNTNVQNSRRSSRSRDKNQRFNKPPLPYKVERIGSAQSLESLSSPSSSSAKTSSSSSSSSFSTSSQETNSSESS” it was “not soluble”. Next, “MSHPRYKSLLNRDRIVEAFESGVLAKGGMIAHGRGETFDYLIGESTTDAALNSIKVSAALLVLAENPVISVNGNSVALAKDEFVELAKELNGKIEVNLFYRTTEREEKIKDVFESDINGGIVLLGIDNADKQIPGIDHLRGKVSESGIYTSDVVLVPLEDGDRAEALVKMGKTVIAIDLNPLSRTARKSTISIIDELTRCIPLITEYVREYKKMDRAELLKIVENYDNEENLRNILNLISKRLTSVDLEHHHHHH”: “not soluble”.

For “MSHVTAAPNVLAASAGELAAIGSTMRAANAAAAAPTAGVLAAGGDDVSAGIAALFGARAQAYQAISAQAALFHDRFVQILQEGAAAYAMAEAANALPLQKAQGVVSELAQDRTGGTGTGQSRGAGGFGGVGQAGGKGWDGGPIGNGQVGEQHGAGQLGSTDGNPGVAGAAHGSGVSASHGSGATGAAGVADPGGSGAGVGSAAGNGTGAGSADAVGGAGTGRDIVGSVRGDGGVGMASGDGGLSTGAAGASAEGGLMPGFGGAPWVGGHWGLGGEGHSGAIGGVGEQVAPAVATAPAVSPATTSAVAAESGSTPATKAQAMHATTNPGNAAHQGNPADPGNSARRADGGRDEQLLLLPLTSLRGLRHTLKKLSGLRARNGLLTASGDNASGSGRPWDRDQLLRALGLRPPGHE”, the “soluble on expression in E. coli” value is “not soluble”. Turning to “MSIESKIRQLIDQNGYITCDVLMQEVLNLNPTSYYKQVKSLANEGDFVTAPEISQLFGEIIGLWCIREWQRIGCPKSLSLVELGPGRGLLMRDLLRTAKLVPEFYKALSIELIEINKNFIAYQKANLQDINLPISHQSFVEDIPKKPTIIIANEFFDAIPIKQYIKVKELWYERIFVVQPVDERIKYDKISVNKQLQEYLLCTHIEAKDGAVLEESYKSIEIIKFIAQHLKRLSGSGLIIDYGYDIAPNGRTRYQYNQTLQAVKNHKYCPILENLGEADLSAHVDFYALKTVAKNSKINVIDTISQRDFLIENGILLRKQTLQDKLNDRHLAKFAYREEFKGDTKRSTAAYTLVREDASIGSTYKLPLEVEFGKMSEQAQIIERQVERLISPKQMGELFKVLQIMN”, the “soluble on expression in E. coli” value is on record as “not soluble”. “MSIKKSPVYNVIAVPVEKVQANDYNPNVVAPPEMRLLELSIWEDGFTMPCVCYYDKEKDVYILVDGFHRYSVLKTSKRIFQRENGMLPIVVIEKDLSNRMSSTIRHNRARGTHNIELMCHIVAELDKAGMSDQWIMKNIGMDRDELLRLKQISGLADLFANRDFSVPEDDQPGNVDKKPTR”: the “soluble on expression in E. coli” value is “not soluble”. Next, “MSILVYDREHNFKKWYIYWIPKTKMLGVKDDKDVVYEKMCTLQERTDILKVSKSLVEEKWSSLFSESGLHIEEVCEKELVLTFALQRNITLERTELSGRFDECLYLEYLRLKTLTNVSPMKRKRTASTVEHVIRSDDIKPILAPKSDPVKKRTTRMAAKASGPEFDDE”: “not soluble”. In the case of “MSIMSYTGGTVVAMAGDECVCIASDLRIGEQMTTIATDQKKVHKVTDKVYVGLAGFQSDARTVLEKIMFRKNLYELRENRNIKPQVLSEMISNLAYQHRFGSYFTEPLVAGLDDTNKPYICCMDTIGCVSAPRDFVAVGTGQEYLLGVCENFWRENMKPDELFEATAQSILSCLERDAASGWGAVVYTITKDKVNVSTIKARMD” it was “not soluble”; in that of “MSIPKQLMIGSVPYEVEVVKGWIDEKENGEVRIAEVTYHEQQIKISDNVAKHEGQMKNVLHEAIHAMLYEYGLDRLNKEVNVNALTTVFFDFIKNNIRGGISSFVGYQYLLLKCPEKTNVEFYDSDTDPATLRFKKETDELSFINTAAELVETINQHPPEVDVSALGVAMAKAEVHKAVDLGVAHEQIQESAVKMTTDKQTRKLPIVDVNRSSFPMEEIAKITKKEETDPIHWKTGIKYDDEGTPRYRTRYECCMCGNRGNQYEYEENKFTKCHKCNAKLKIVQATKNGFPERDAFGNFYVANDEYSVILDGE”, “not soluble”.
